Assay results: PMC6137974, “FZP determines grain size and sterile lemma fate in rice”

Assays:
FZP (FRIZZY PANICLE) [1] = target: T1, FZP (FRIZZY PANICLE) (Oryza sativa, UniProt Q8H3Q1 1-318); test: EMSA; 0.5, 1 and 1.5 ug protein; EMSA, 15 ul, 1 ug biotin probe, 0.5-1.5 ug protein, LightShift Chemiluminescent EMSA Kit (Thermo) binding buffer; salt, pH and temperature not stated; conditions: protein: recombinant; tags: His-SUMO (pET-SUMO); label: 5' biotin; blunt
FZP (FRIZZY PANICLE) [2] = target: T1, FZP (FRIZZY PANICLE); test: EMSA; 1.5 ug protein; EMSA, 15 ul, 1 ug biotin probe, 0.5-1.5 ug protein, LightShift Chemiluminescent EMSA Kit (Thermo) binding buffer; salt, pH and temperature not stated; conditions: protein: recombinant; tags: His-SUMO (pET-SUMO); label: 5' biotin; blunt

T1 sequence (Q8H3Q1 whole entry): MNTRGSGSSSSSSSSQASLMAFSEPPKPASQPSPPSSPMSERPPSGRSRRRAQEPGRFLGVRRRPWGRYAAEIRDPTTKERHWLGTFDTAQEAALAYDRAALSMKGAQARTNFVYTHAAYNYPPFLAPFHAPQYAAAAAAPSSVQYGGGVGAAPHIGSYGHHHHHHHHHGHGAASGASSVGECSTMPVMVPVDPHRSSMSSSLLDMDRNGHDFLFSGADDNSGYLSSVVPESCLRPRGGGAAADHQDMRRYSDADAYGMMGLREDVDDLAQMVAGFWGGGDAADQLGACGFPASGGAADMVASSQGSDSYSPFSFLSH

B1: GCC-box probe (3 repeats) (dsDNA)
DNA 1: CATAAGAGCCGCCACTCATAAGAGCCGCCACTCATAAGAGCCGCCACT
DNA 2: AGTGGCGGCTCTTATGAGTGGCGGCTCTTATGAGTGGCGGCTCTTATG
binding result (FZP (FRIZZY PANICLE) [1]): binds

B2: DRE probe (3 repeats) (dsDNA)
DNA 1: ATACTACCGACATGAGATACTACCGACATGAGATACTACCGACATGAG
DNA 2: CTCATGTCGGTAGTATCTCATGTCGGTAGTATCTCATGTCGGTAGTAT
binding result (FZP (FRIZZY PANICLE) [1]): binds

B3: mGCC-box probe (3 repeats) (dsDNA)
DNA 1: CATAAGATACTTGACTCATAAGATACTTGACTCATAAGATACTTGACT
DNA 2: AGTCAAGTATCTTATGAGTCAAGTATCTTATGAGTCAAGTATCTTATG
binding result (FZP (FRIZZY PANICLE) [2]): no binding

B4: mDRE probe (3 repeats) (dsDNA)
DNA 1: ATACGTCTTTGACGAGATACGTCTTTGACGAGATACGTCTTTGACGAG
DNA 2: CTCGTCAAAGACGTATCTCGTCAAAGACGTATCTCGTCAAAGACGTAT
binding result (FZP (FRIZZY PANICLE) [2]): no binding
